Measurements taken from patent US20250114450A1, “PHARMACEUTICAL COMBINATION CONTAINING ANTI-PD-1-ANTI-VEGFA BISPECIFIC ANTIBODY, AND USE THEREOF” (Akeso Biopharma, Inc., priority 2021, published 2025).

Tests used:
[1] = system: SK-OV-3 human ovarian cancer cells; assay type: in vivo; conditions: VP101(hG1DM) 14 mg/kg weekly, olaparib 100 mg/kg daily, alone or in combination; FIG. 41
Excerpt: 39 days after grafting, the mice were intraperitoneally injected with 3 million activated PBMCs and randomly divided into 4 groups of 6 animals by tumor volume. The day of grouping was defined as D0, and dosing was started on the day of grouping D0. The regimen of the combination therapy group is as follows: the drugs were formulated separately and administered sequentially (no certain order or time interval was required, and one treatment should be given after the completed administration of the other). After the administration, the length and width of tumors in each group were measured, and the tumor volume was calculated.

[2] = system: MDA-MB-231 cells (human breast cancer cells); assay type: in vivo; conditions: VP101(hG1DM) 3 mg/kg weekly, olaparib 50 mg/kg daily, alone or in combination; FIG. 39
Excerpt: 23 days after grafting, the mice were randomly divided into 4 groups of 6 animals by tumor volume. The day of grouping was defined as DO, and olaparib dosing was started on day D0. […] The regimen of the combination therapy group is as follows: the drugs were formulated separately and administered sequentially (no certain order or time interval was required, and one treatment should be given after the completed administration of the other). After the administration, the length and width of tumors in each group were measured, and the tumor volume was calculated.

[3] = system: CHO-K1-PD1 cells overexpressing PD-1; test: ADCP activity assay, murine macrophages and CHO-K1-PD1 cells, flow cytometry; assay type: cell-based; conditions: murine macrophages + CHO-K1-PD1-CFSE cells, antibody 10, 1 and 0.1 μg/mL, 2 h, vs isotype control; FIG. 35
Protocol: The method is as follows:
The femoral bone marrow of C57 mice (purchased from Guangdong Medical Laboratory Animal Center) was first aseptically collected and lysed by erythrocyte lysis buffer on ice for 5 min. The lysis was terminated with DMEM complete medium (containing 10% FBS), and the lysate was centrifuged at 1000 rpm and washed twice. The cell pellet was resuspended in 10 mL of DMEM complete medium and M-CSF was added at a working concentration of 100 ng/mL. The cells were cultured for 7 days at 37° C. and 5% CO2 in a cell culture chamber for induction. Half of the medium was exchanged and M-CSF was added on Days 3 and 5. The induction of cells was completed on day 7. […] The supernatant was discarded and the cells were suspended in DMEM complete medium (containing 10% FBS) and counted. […] CHO-K1-PD1 cells were collected by conventional methods, centrifuged at 170×g for 5 min, resuspended, counted, analyzed for viability and washed once with PBS. […] The cells were counted, transferred to a 96-well plate and centrifuged at 1000×g for 5 min, and the supernatant was discarded. […]
Macrophages in the system were APC^+ positive, and macrophages involved in phagocytosis were APC and CFSE dual positive. The phagocytosis rate was determined as the ratio of the number of dual positive cells to the number of APC positive cells, and the antibody-mediated ADCP activity was evaluated. […]

FcγRIIIa_F158 = FcγRIIIa_F158 (Homo sapiens, UniProt P08637); test: Affinity constant assay to FcγRIIIa_F158 (Fortebio Octet); conditions: FcγRIIIa_F158 immobilized on HIS1K sensor, antibody 31.25-500 nM, 30° C., 1:1 model; N/A = no binding or extremely weak binding signal
Protocol: 5 μg/mL FcγRIIIa_F158 was immobilized on the HIS1K sensor for 120 s. The sensor was equilibrated in a buffer for 60 s, and the binding of the immobilized hFcGR3A(F158)-his on the sensor to the antibodies at concentrations of 31.25-500 nM (serial two-fold dilution) was determined for 60 s. The antibody was dissociated in the buffer for 60 s. The sensor was refreshed 4 times in 10 mM glycine pH 1.5, each for 5 s. The detection temperature was 30° C. and the frequency was 0.3 Hz. The data were analyzed by 1:1 model fitting to obtain affinity constants.

C1q = C1q (Homo sapiens, UniProt P02745+P02746+P02747); test: Affinity constant assay to C1q (Fortebio Octet); conditions: antibody immobilized on FAB2G sensor, C1q 0.625-10 nM, 30° C., 1:1 model; N/A = no binding or extremely weak binding signal
Protocol: 50 μg/mL antibody was immobilized on the FAB2G sensor at an immobilization height of about 2.0 nm. […] The antigen and antibody were dissociated in the buffer for 60 s. The sensor was refreshed 4 times in 10 mM glycine pH 1.7, each for 5 s. The shaking speed of the sample plate was 1000 rpm, the temperature was 30° C. and the frequency was 0.6 Hz. The data were analyzed by 1:1 model fitting to obtain affinity constants. The data acquisition software was Fortebio Data Acquisition 7.0, and the data analysis software was Fortebio Data Analysis 7.0.

FcγRI = FcγRI (Homo sapiens, UniProt P12314); test: Affinity constant assay to FcγRI (Fortebio Octet); conditions: N/A = no binding or extremely weak binding signal
Protocol: 1 μg/mL FcγRIa was immobilized on the HIS1K sensor for 50 s. The sensor was equilibrated in a buffer for 60 s, and the binding of the immobilized CD64 on the sensor to the antibodies at concentrations of 3.12-50 nM (two-fold dilution) was determined for 120 s. The antibody was dissociated in the buffer for 120 s. The sensor was refreshed 4 times in 10 mM glycine pH 1.5, each for 5 s. The detection temperature was 30° C. and the frequency was 0.3 Hz. The data were analyzed by 1:1 model fitting to obtain affinity constants.

FcγRIIa_H131 = biological target: T1, FcγRIIa_H131 (Homo sapiens, UniProt P12318); test: Affinity constant assay to FcγRIIa_H131 (Fortebio Octet); conditions: FcγRIIa_H131 immobilized on NTA sensor, antibody 12.5-200 nM, 30° C., 1:1 model; N/A = no binding or extremely weak binding signal
T1 sequence (P12318 34-217 limits assumed): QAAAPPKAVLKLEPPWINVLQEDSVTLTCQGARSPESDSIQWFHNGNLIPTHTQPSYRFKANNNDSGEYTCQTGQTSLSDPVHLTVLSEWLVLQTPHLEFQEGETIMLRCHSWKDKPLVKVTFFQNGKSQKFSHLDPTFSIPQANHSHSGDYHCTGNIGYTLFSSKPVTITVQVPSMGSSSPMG
Protocol: The antibody was dissociated in the buffer for 60 s. The sensor was refreshed in 10 mM glycine pH 1.7 and 10 nM nickel sulfate. […] The data were analyzed by 1:1 model fitting to obtain affinity constants.

Chain of FcγRI (P12314 16-374): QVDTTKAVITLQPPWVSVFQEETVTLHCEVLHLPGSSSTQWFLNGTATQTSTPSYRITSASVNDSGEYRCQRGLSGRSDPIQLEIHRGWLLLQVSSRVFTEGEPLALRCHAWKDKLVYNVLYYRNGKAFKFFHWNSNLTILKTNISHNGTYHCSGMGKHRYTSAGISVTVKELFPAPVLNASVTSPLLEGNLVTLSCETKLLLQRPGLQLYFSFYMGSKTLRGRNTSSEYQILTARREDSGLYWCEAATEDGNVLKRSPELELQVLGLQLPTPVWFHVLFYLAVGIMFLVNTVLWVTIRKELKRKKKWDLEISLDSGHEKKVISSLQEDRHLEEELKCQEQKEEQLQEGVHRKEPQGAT
Chain of C1q (P02745 23-245): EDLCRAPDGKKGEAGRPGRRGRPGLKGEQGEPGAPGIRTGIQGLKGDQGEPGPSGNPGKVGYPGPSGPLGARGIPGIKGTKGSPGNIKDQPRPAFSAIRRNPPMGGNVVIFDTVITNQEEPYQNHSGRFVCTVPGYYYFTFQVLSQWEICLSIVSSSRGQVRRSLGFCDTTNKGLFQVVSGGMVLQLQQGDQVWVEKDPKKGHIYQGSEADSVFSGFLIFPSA
Chain of C1q (P02746 28-253): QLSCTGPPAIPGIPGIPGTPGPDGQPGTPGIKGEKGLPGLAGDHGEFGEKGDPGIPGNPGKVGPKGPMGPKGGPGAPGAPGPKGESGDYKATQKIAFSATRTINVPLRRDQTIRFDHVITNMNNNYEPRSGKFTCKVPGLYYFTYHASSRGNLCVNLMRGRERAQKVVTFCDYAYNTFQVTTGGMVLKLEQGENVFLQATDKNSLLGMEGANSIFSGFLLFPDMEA
Chain of C1q (P02747 29-245): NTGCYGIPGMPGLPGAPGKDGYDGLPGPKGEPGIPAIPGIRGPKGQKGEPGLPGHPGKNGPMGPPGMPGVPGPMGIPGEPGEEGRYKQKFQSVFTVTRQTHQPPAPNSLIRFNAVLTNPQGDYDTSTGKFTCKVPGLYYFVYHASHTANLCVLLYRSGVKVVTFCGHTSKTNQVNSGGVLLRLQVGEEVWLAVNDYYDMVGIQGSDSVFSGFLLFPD
Chain of FcγRIIIa_F158 (P08637 17-208 limits assumed): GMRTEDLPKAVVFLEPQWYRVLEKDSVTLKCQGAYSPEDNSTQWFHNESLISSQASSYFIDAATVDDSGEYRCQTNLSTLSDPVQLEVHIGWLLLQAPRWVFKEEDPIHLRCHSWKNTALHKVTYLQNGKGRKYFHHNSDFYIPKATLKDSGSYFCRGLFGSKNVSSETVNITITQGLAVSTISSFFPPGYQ

| Kd (FcγRI; FcγRIa immobilized on HIS1K sensor, antibody 3.12-50 nM, 30° C., 1:1 model) | Rmax to FcγRI (FcγRI) | kdis to FcγRI (FcγRI) | Compound | tolerability / body weight of tumor-bearing mice [1] | tolerability / body weight of tumor-bearing mice [2] | ADCP activity (phagocytic rate, P %) [3] | KD (affinity constant) to FcγRIIIa_F158 (FcγRIIIa_F158) | KD (affinity constant) to C1q (C1q) | KD (affinity constant) to FcγRIIa_H131 (FcγRIIa_H131) |
| --- | --- | --- | --- | --- | --- | --- | --- | --- | --- |
| – | – | – | O=C(c1cc(Cc2n[nH]c(=O)c3ccccc23)ccc1F)N1CCN(C(=O)C2CC2)CC1 [olaparib] | no effect on the body weight | no effect on the body weight | – | – | – | – |
| 6.2 nM | 0.48-0.53 nm | 0.00432 s⁻¹ | Nivolumab: approved PD-1 antibody (Opdivo) purchased from BMS as a reference antibody | – | – | significant ADCP effect | no binding or an extremely weak binding signal | no binding or an extremely weak binding signal | no binding or an extremely weak binding signal |
